The values below come from patent US20040067513A1.

This experiment deals with OB-RL(wt). Briefly: cell-based or functional assay.

Regarding Leptin (ligand), the Reporter Activity (GT1-7 cells, leptin +; 3041 without leptin) is 27000; the Reporter Activity (cells co-transfected with 84569 cDNA, leptin +; 4146 without leptin) is 7600; the Reporter Activity (cells co-transfected with control vector, leptin +; 4316.5 without leptin) worked out at 25000.
